A protein production outcome set (Wang et al. 2014)

Experiment: label from the status in PepcDB records

Sequence	protein production
MPTLGFRFRAHTDEQTLRALKAQLKLACEVYNTLRWADIYFYQRDGKGLTQTELRQLALDLRKQDDEYKQVYSQVVQQIADRYYEARQRFFEGLARFPKEKKPHKYYSLVYPQYGWKILQVREIRKGSKKKLITLKLSNLGVFKVIVHRDFPLDKVKRVVVKLTRSERIYITFVVEGYEFPKLPNTGKVVAIDVGVEKLLVTSDSEYFPNLRPLEKALWKVKHLHRELSRKKFLSNNWFKAKVKLARAYEHLKNLRTDLYMKLGKWFAEHYDVVVMEDIHVKQLIGKSLRSLRRRLSDVAFSELRDLIKYQLEKYGKKLILVNPAYTSKTCARCGYVKEDLSLSDRVFVCSNCGWIADRDYNASLNILRGSGSERSLVPVELRPLPVPALRYWHGRAVKLEHHHHHH	failed
MALPLVSSVSYIKSSNQFHCSFSLRKEKFELSSFFIVLCSHFSYVDTAERLELDRLLLWSSHQKIRFSKRTFSQRIVVKMSASTLPMNLGKAKKVWIWTMCKEVMTVAVERGWNTFIFSSDNRKLSNEWSSIALMDTLFIEEKKVIDGTGNVVASVFEVSTPEELRSLNIENEQIENIVLDFLDWKSIPAENLVAALQGSEKTVFAVSNTPSEAKLFLEALEHGLGGIILKSEDVKAVLDLKEYFDKRNEESDTLSLTEATITRVQMVGMGDRVCVDLCSLMRPGEGLLVGSFARGLFLVHSECLESNYIESRPFRVNAGPVHAYVAVPGGKTCYLSELRTGREVIVVDQKGKQRTAVVGRVKIEKRPLIVVEAKLSTKEEETVYSIILQNAETVALVTPHQVNSSGRTAVPVTSLKPGDQVLIRLQGGARHTGIEIQEFIVEN	failed
MTISEVSKKYELSADTLRYYERIGLIPPVNRNKSGIRSFTEEDCEWVNFIKCMRGAGLSIETLIEYVAMFQQGSSTIKARKELLIEQRNQLAKRIEEMQKTLERLNFKIDRYEEGIIEKEKVLKSSRNKKMEAVSYE	not failed
MEIINLTYIPLGVYNYYKSNNQEVKMQTIDISELELLTESENPVIVDVREDFEYNSGHVPNAKNIPLSQLEERYAEITDGTYLICQSGARSARACQYLSTKGIDTINISGGTIAWNGP	failed
MPHELSWGDIYFSPTLLVLFLAVTATWITVMILNKTRLSRFIAFPSLTFIAIMVGYVVAIDSFYIQF	failed
MSRKILDRYIAKTVLSAIGLVTLMLVGLQIFILFVNQIDDLGRADYGIVQAGVFVLLQMPYQVYLFFPIASLLGCLVGLGVLANHSELVVMRAAGISIGQITGAVLKASLIVILLITSLGETIVPVMAHYANEYKVSALTGGQALLTPRGVWVRNGNDFVSIASVTHENTLRYVNQFRFDNQHNLKLARQISEVKYVNNSWIAYDVKQTEFAEDHTKAHHFDTLPWDVPVKPEILKITGTNPDEMTLHELNRYLREQQRNHQNVANYKFAFFQRITQPLNTMVMMILAIPFIFGPLRSSTMGSKLLVGAMVGFGFHILNRFFGPVSTVFQWPPELAAFSPTLIFSLIGIYLMRRVR	failed
LQQQEEETYADACDEFLDPIMSTLMCDPVVLPSSRVTVDRSTIARHLLSDQTDPFNRSPLTMDQIRPNTELKEKIQRWLAERKQQ	not failed
VWWQLHYGPHPDERELDLEGWTTRVLDATRDAVAIRQRAAVDVGVLLSGGVDSSLLVGLLREVGVDDLSTFSIGFEDAGGERGDEFQYSDLIAKHYGTRHHQLRIAEHEIIDQLPAAFRAMSEPMVSHDCIAFYLLSREVAKHCKGVQSGQGADELFAGYHWYPQVDGADDAYAAYREAFFDRSHAEYRDTVQAPWLLETDAAGDFVREHFARPGAPAAVDKALRLDSTVMLVDDPVKRVDNMTMAWGLEARTPFLDYRLVELSARIPARFKLPDGGKQVLKQAARRVIPHEVIDRKKGYFPVPGLKHLEGATLGWVRELLTDPSQDRGLFNPTMLDRLLSNPHGQLTPLRGSKLWQLAALNLWLS	failed
MSEYEVLLATKRRTPPDSSAGRSSQIWRRAFGHWLQGRNGSSSLSNQNEPRPCRVRRNAGSHGPPVCIPFALALPPRMDVRLPSRLAPPLGAVLLCTLLMGGPPPTVASPAVLFPSADTTSPRARRLLIQGTTEAQLGDYEEAISHFEAALEQVPEAPVLLLALADAHEAQGALSTALFYARRAQTQGSPRPSPYRRLAEMQRAAGDPAAALRTYQQLLDHVPNANDAHRARAAIQADLGRTKGAIQSYEIYLQRADSPPIDVYRRLLSLYRKTGDKDGVETTLRTLVERRPTVRSYQRRLGEYYADEGRPRKALALLAPLGRQFPNDEALRRQVQRLARQTGQSIASPTQRAQSDSTRSQSASPDAPLRRARSMYDAATASSPPDTAQLRAAAGVLRDVLHQSPDTEAALSLQAELYQAWGRPEEAGRAMERLLDLTPRAPGRWVRTAQTYQRAHLYARAAGVAEEGFLLFPGHMPLARTAAFARLRTGDPAKARRHFQDALSLLGDSTGAAAEAVLHAGLGLAKSRLGRPREADDALKNARALAPQHPQVVRLYARSLARQDDRLDQALDLAEQAVENAPDSPSAHRALGQVQFRRDELEAARRHLRIALDAGGPSATLLERLGDVEAALGNDTAAQTYWQRALDRNPDRSSLREKLAVPANS	failed
MSNAITMGIFWHLIGAASAACFYAPFKKVKKWSWETMWSVGGIVSWIILPWAISALLLPNFWAYYSSFSLSTRLPVFLFGAMWGIGNINYGLTMRYLGMSMGIGIAIGITLIVGTLMTPIINGNFDVLISTEGGRMTLLGVLVALIGVGIVTRAGQLKERKMGIKAEEFNLKKGLVLAVMCGIFSAGMSFAMNAAKPMHEAAAALGVDPLYVALPSYVVIMGGGAIINLGFCFIRLAKVKDLSLKADFSLAKSLIIHNVLLSTLGGLMWYLQFFFYAWGHARIPAQYDYISWMLHMSFYVLCGGIVGLVLKEWNNAGRRPVTVLSLGCVVIIVAANIVGIGMAN	failed
MNFPIDEKLIREKQNELHIKDLGMASIRDLVALVTNLEKATGTKFCRMEMGVPGLPAPQIGIETEIQKLREGVASIYPNLDGLPELKQEASRFAKLFVNIDIPARACVPTVGSMQGCFVSFLVANRTHKNREYGTLFIDPGFNLNKLQCRILGQKFESFDLFEYRGEKLREKLESYLQTGQFCSIIYSNPNNPTWQCMTDEELRIIGELATKHDVIVIEDLAYFGMDFRKDYSHPGEPLYQPSVANYTDNYILALSSSKAFSYAGQRIGVLMISGKLYEREYPDLEESFGRLRFGEALSSSALYALSSGATHSAQWGMAAMLKACNDGEYNFRDSVIEYGRKARIMKKMFLDNGFNIVYDKDGNEPLADGFYFTVGYKGMDSSKLIEKFVRYGMCAITLKTTGSKRNEAMRICTSLLPESQFPDLEKRLQMLNAEG	not failed
MKKPKFLSLQEDDTFEKMRQSRLQKNKRKRDSGLNVFEEVVKDLTYGYMKIGDGDEIYGKHRKKKRVSKAKELEMAMTLEALKKDQEKGDIVAKNHSWQAAISRAAGIKIHDDPKRLKKRIHKETKMREKNTEKWKERVDVQQKFRAEKQQKRSENVIDRIQQKKMRKIAKREKKLLRPGY	failed
MKTRKIPLRKSVVSNEVIDKRDLLRIVKNKEGQVFIDPTGKANGRGAYIKLDNAEALEAKKKKVFNRSFSMEVEESFYDELIAYVDHKVKRRELGLE	not failed
MKRLSLLAATAAFLLASPALAESPFWPVQPKNGPVAAELRGAWKSRGYGWIVQFGPDGPQLFHTAGGACYPDPRREPDPDGVLALWRAEGPGVISLTGDPVGTRYQFDRLPNLPTDCISAGGWTPDRIVAFAADTFAELYPRSAERKLDWPARKAKALTQVGPNATDDQLWLAMAGLLSGLDDPHVELHGMVQGARRDLEPGESPTLMRVRAADPSGDERGWLQAYREGILTGLLQGKGRQAANNRIFWGRVDDVGYLNVLTMGAFARNAAPDDPRPLDAVLDEALSAFVGAKAVVVDVSNNRGGYDIISRRIAARFTAQPRVAYAKVPVGAKAPPQVIKVEPSGAVGFTGPVYVVTSDITVSAGETFTLMMKALPNVTLVGGTTRGAFSDQLPKPLPNGWTLALPAELYRTADGRDLEGRGLAPTVPMAVFPDSDLMGGHAKALSSLFATIREGAAAGATR	failed
MLDPATIVAVPAPGRACGPCTLCCKVYDVPAVESPAGRWCRHVRSGGGCGIHAERPDHCRAFHCLWMTETWIGPEWRPDRAKMVLSLDPVTRFLNVQVDPGQAGAWKRAPYHDQLRRWAAASLPLQRYVLVHVNKVTTVVLPDRDVALGTFGPGDRLVGRERMTPAGMTADVEKVSQLA	failed
YAVQICKGMDYLGSRQYVHRDLAARNVLVESEHQVKIGDFGLTKAIETDKEYYTVKDDRDSPVFWYAPECLMQSKFYIASDVWSFGVTLHELLTYCDSDSSPMALFLKMIGPTHGQMTVTRLVNTLKEGKRLPCPPNCPDEVYQLMRKCWEFQPSNRTSFQNLIEGFEALLK	failed
MSLSDAVNKHPKSPNPQLCAVTLLGNLVATPDIRYRANPATAVTEIVLATSSKWLDKITNKYKEWTSYHHVKVEGELVELALLNANKGDIILLHGYLSNIKPKSTDKSTNHLGIVHANFVQKFEKGYTQAINQIHCSAQLTSKPKLMLTEQNKNITQANIVINQHIYNTDKQAWQTISVERAIHVWGKQAQYLAEHGDIGDELMLEGKLSYTSGVSKDQFIEVKNVHLFKGTLEHHHHHH	not failed
QVSKTYYVSKPGTLISMMTEEEANSITHLTLTGKLNAEDFRHLRDEFPSLKVLDISNAEIKMYSGKAGTYPNGKFYIYMANFVPAYAFSNVVNGVTKGKQTLEKVILSEKIKNIEDAAFKGCDNLKICQIRKKTAPNLLPEALADSVTAIFIPLGSSDAYRFKNRWEHFAFIEGEPLETTIQVGAMGKLEDEIMKAGLQPRDINFLTIEGKLDNADFKLIRDYMPNLVSLDISKTNATTIPDFTFAQKKYLLKIKLPHNLKTIGQRVFSNCGRLAGTLELPASVTAIEFGAFMGCDNLRYVLATGDKITTLGDELFGNGVPSKLIYKK	not failed
MKWLDRLKIANYHRKRYKQFGNDKARTLGWQDEYSQISRFEALTRSLCLEAVSILDIGCGFGDLLEYIESQNQYPARYVGIDLQKQFITKARKKAFKTPVNFICGDFSKLVLPQSDYVFASGSLNYKSSNANHTIEMIEKMYRAARIGCVFNLLDEEKLPSMRMLESHNKVGVLRYCRWLCPDAQLIEGYSDHDFTIVMIKKAEPVS	failed
